According to patent US20110166062A1 (INDIANA UNIVERSITY RESEARCH AND TECHNOLOGY, published 2011):
Bridges are numbered along the chain shown (N, C = ends). Primed or numbered codes have the meaning given here. Where no end group is shown, it is not given here. Side-chain parts run from the residue outwards. [ ]: non-standard residue; d: D form. maleimide = maleimide group on activated PEG, it reacts with the Cys thiol (Michael addition) to give a thioether linkage; PEG 40 kDa″ = polyethylene glycol of 40 kDa covalently attached to the side chain; PEG 40 kDa = PEG (40 kDa) covalently attached to Cys; Aib = CC(C)(N)C(=O)O

B1: mt-174 (peptide)
peptide: Y[Aib]EGTFTSDYSIYLDEQAAKEFVNWLLAGGPSSGAPPPSC-NH2
modifications: lactam 16-20; N-terminus assumed
SMILES: CC[C@H](C)[C@H](NC(=O)[C@H](CO)NC(=O)[C@H](Cc1ccc(O)cc1)NC(=O)[C@H](CC(=O)O)NC(=O)[C@H](CO)NC(=O)[C@@H](NC(=O)[C@H](Cc1ccccc1)NC(=O)[C@@H](NC(=O)CNC(=O)[C@H](CCC(=O)O)NC(=O)C(C)(C)NC(=O)[C@@H](N)Cc1ccc(O)cc1)[C@@H](C)O)[C@@H](C)O)C(=O)N[C@@H](Cc1ccc(O)cc1)C(=O)N[C@@H](CC(C)C)C(=O)N[C@@H](CC(=O)O)C(=O)N[C@H]1CCC(=O)NCCCC[C@@H](C(=O)N[C@@H](CCC(=O)O)C(=O)N[C@@H](Cc2ccccc2)C(=O)N[C@H](C(=O)N[C@@H](CC(N)=O)C(=O)N[C@@H](Cc2c[nH]c3ccccc23)C(=O)N[C@@H](CC(C)C)C(=O)N[C@@H](CC(C)C)C(=O)N[C@@H](C)C(=O)NCC(=O)NCC(=O)N2CCC[C@H]2C(=O)N[C@@H](CO)C(=O)N[C@@H](CO)C(=O)NCC(=O)N[C@@H](C)C(=O)N2CCC[C@H]2C(=O)N2CCC[C@H]2C(=O)N2CCC[C@H]2C(=O)N[C@@H](CO)C(=O)N[C@@H](CS)C(N)=O)C(C)C)NC(=O)[C@H](C)NC(=O)[C@H](C)NC(=O)[C@H](CCC(N)=O)NC1=O
B2: mt-191 (peptide)
peptide: Y[Aib]QGTFTSDYSIYLDEQAAKEFVNWLLAGGPSSGAPPPS-NH2
modifications: N-terminus assumed
SMILES: CC[C@H](C)[C@H](NC(=O)[C@H](CO)NC(=O)[C@H](Cc1ccc(O)cc1)NC(=O)[C@H](CC(=O)O)NC(=O)[C@H](CO)NC(=O)[C@@H](NC(=O)[C@H](Cc1ccccc1)NC(=O)[C@@H](NC(=O)CNC(=O)[C@H](CCC(N)=O)NC(=O)C(C)(C)NC(=O)[C@@H](N)Cc1ccc(O)cc1)[C@@H](C)O)[C@@H](C)O)C(=O)N[C@@H](Cc1ccc(O)cc1)C(=O)N[C@@H](CC(C)C)C(=O)N[C@@H](CC(=O)O)C(=O)N[C@@H](CCC(=O)O)C(=O)N[C@@H](CCC(N)=O)C(=O)N[C@@H](C)C(=O)N[C@@H](C)C(=O)N[C@@H](CCCCN)C(=O)N[C@@H](CCC(=O)O)C(=O)N[C@@H](Cc1ccccc1)C(=O)N[C@H](C(=O)N[C@@H](CC(N)=O)C(=O)N[C@@H](Cc1c[nH]c2ccccc12)C(=O)N[C@@H](CC(C)C)C(=O)N[C@@H](CC(C)C)C(=O)N[C@@H](C)C(=O)NCC(=O)NCC(=O)N1CCC[C@H]1C(=O)N[C@@H](CO)C(=O)N[C@@H](CO)C(=O)NCC(=O)N[C@@H](C)C(=O)N1CCC[C@H]1C(=O)N1CCC[C@H]1C(=O)N1CCC[C@H]1C(=O)N[C@@H](CO)C(N)=O)C(C)C
B3: mt-198 (peptide)
peptide: [Aib]QGTFTSDYSIYLDEQAAKEFVNWLLAG-NH2
modifications: lactam 15-19; N-terminus assumed
SMILES: CC[C@H](C)[C@H](NC(=O)[C@H](CO)NC(=O)[C@H](Cc1ccc(O)cc1)NC(=O)[C@H](CC(=O)O)NC(=O)[C@H](CO)NC(=O)[C@@H](NC(=O)[C@H](Cc1ccccc1)NC(=O)[C@@H](NC(=O)CNC(=O)[C@H](CCC(N)=O)NC(=O)C(C)(C)N)[C@@H](C)O)[C@@H](C)O)C(=O)N[C@@H](Cc1ccc(O)cc1)C(=O)N[C@@H](CC(C)C)C(=O)N[C@@H](CC(=O)O)C(=O)N[C@H]1CCC(=O)NCCCC[C@@H](C(=O)N[C@@H](CCC(=O)O)C(=O)N[C@@H](Cc2ccccc2)C(=O)N[C@H](C(=O)N[C@@H](CC(N)=O)C(=O)N[C@@H](Cc2c[nH]c3ccccc23)C(=O)N[C@@H](CC(C)C)C(=O)N[C@@H](CC(C)C)C(=O)N[C@@H](C)C(=O)NCC(N)=O)C(C)C)NC(=O)[C@H](C)NC(=O)[C@H](C)NC(=O)[C@H](CCC(N)=O)NC1=O
B4: mt-201 (peptide)
peptide: Y[Aib]QGTFTSDYSIYLDEEAVRLFVNWLLAGGPSSGAPPPS-NH2
modifications: N-terminus assumed
SMILES: CC[C@H](C)[C@H](NC(=O)[C@H](CO)NC(=O)[C@H](Cc1ccc(O)cc1)NC(=O)[C@H](CC(=O)O)NC(=O)[C@H](CO)NC(=O)[C@@H](NC(=O)[C@H](Cc1ccccc1)NC(=O)[C@@H](NC(=O)CNC(=O)[C@H](CCC(N)=O)NC(=O)C(C)(C)NC(=O)[C@@H](N)Cc1ccc(O)cc1)[C@@H](C)O)[C@@H](C)O)C(=O)N[C@@H](Cc1ccc(O)cc1)C(=O)N[C@@H](CC(C)C)C(=O)N[C@@H](CC(=O)O)C(=O)N[C@@H](CCC(=O)O)C(=O)N[C@@H](CCC(=O)O)C(=O)N[C@@H](C)C(=O)N[C@H](C(=O)N[C@@H](CCCNC(=N)N)C(=O)N[C@@H](CC(C)C)C(=O)N[C@@H](Cc1ccccc1)C(=O)N[C@H](C(=O)N[C@@H](CC(N)=O)C(=O)N[C@@H](Cc1c[nH]c2ccccc12)C(=O)N[C@@H](CC(C)C)C(=O)N[C@@H](CC(C)C)C(=O)N[C@@H](C)C(=O)NCC(=O)NCC(=O)N1CCC[C@H]1C(=O)N[C@@H](CO)C(=O)N[C@@H](CO)C(=O)NCC(=O)N[C@@H](C)C(=O)N1CCC[C@H]1C(=O)N1CCC[C@H]1C(=O)N1CCC[C@H]1C(=O)N[C@@H](CO)C(N)=O)C(C)C)C(C)C
B5: mt-376 (peptide)
peptide: YXEGTFTSDYSIYLDKQAAXEFVNWLLAGGPSSGAPPPSKC
modifications: C-terminal amide; acylation at position 40 of each monomer, no spacer; monomers linked via a PEG at C-terminal Cys residues
B6: mt-377 (peptide)
peptide: B5 peptide
modifications: C-terminal amide; acylation at position 40 of each monomer, no spacer; monomers linked via a PEG at C-terminal Cys residues

Target: glucagon receptor (UniProt P47871 26-477, limits assumed)
Test: cell-based or functional assay

Sequence of glucagon receptor (P47871 26-477 limits assumed): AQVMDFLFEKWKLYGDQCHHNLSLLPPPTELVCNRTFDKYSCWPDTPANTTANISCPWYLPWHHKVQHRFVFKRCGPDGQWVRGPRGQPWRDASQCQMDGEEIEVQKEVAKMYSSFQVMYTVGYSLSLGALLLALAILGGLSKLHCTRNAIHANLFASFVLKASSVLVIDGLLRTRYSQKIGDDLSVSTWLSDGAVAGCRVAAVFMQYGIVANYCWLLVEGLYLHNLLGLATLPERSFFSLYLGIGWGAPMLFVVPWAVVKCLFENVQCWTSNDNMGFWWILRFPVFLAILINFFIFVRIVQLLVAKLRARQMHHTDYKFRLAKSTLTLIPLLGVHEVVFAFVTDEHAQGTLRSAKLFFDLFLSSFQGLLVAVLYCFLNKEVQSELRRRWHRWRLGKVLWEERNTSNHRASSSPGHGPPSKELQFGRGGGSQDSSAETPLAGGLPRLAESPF

Binder | EC50 [nM] | relative activity [%]
B1 | 57.5 | 0.06
Y[Aib]QGTFTSDYSIYLDEQAAKEFVC(PEG 40 kDa)WLLAGGPSSGAPPPS-NH2 (lactam 16-20) [mt-175] | 2.42 | 1.49
Y[Aib]QGTFISDYSIYLDEQAAKEFVNWLLAGGPSSGAPPPSC-NH2 (lactam 16-20) [mt-176] | 0.141 | –
Y[Aib]EGTFTSDYSIYLDEQAAKEFVNWLLAGGPSSGAPPPSC([maleimide-PEG 40 kDa])-NH2 (lactam 16-20) [mt-178] | 8.25 | 0.42
Y[Aib]QGTFTSDYSIYLDEQAAKEFVC(PEG 40 kDa″)WLMNG-NH2 (lactam 16-20) [mt-186] | 1.58 | 2.22
B2 | 1.46 | 4.32
B3 | 11.9 | 0.53
B4 | 26.7 | 0.24
Y[Aib]EGTFTSDYSIYLDEQAAKEFVNWLLAGKGKKNWLKHNITQC-NH2 (lactam 16-20) [mt-206] | 331 | 0.01
Y[Aib]QGTFTSDYSIYLDEQAAKEFVNWLLAGKGKKNWLKHNITQC-NH2 (lactam 16-20) [mt-207] | 3.2 | 1.31
Y[Aib]EGTFTSDYSIYLDEQAAKEFVNWLLAGKGKKNWLKHNITQC(PEG 40 kDa″)-NH2 (lactam 16-20) [mt-208] | 448 | 0.01
Y[Aib]QGTFTSEYSKYLDEQAAKEFVNWLLAGGPSSGAPPPSC-NH2 (lactam 9-12, 16-20; not fully specified) [mt-209] | 4.66 | 0.9

Target: GLP-1 receptor (UniProt P43220 24-463, limits assumed)
Test: cell-based or functional assay

Binder | EC50 [nM] | relative activity [%]
B1 | 0.017 | 118
Y[Aib]QGTFTSDYSIYLDEQAAKEFVC(PEG 40 kDa)WLLAGGPSSGAPPPS-NH2 (lactam 16-20) [mt-175] | 0.22 | 5.91
Y[Aib]QGTFISDYSIYLDEQAAKEFVNWLLAGGPSSGAPPPSC-NH2 (lactam 16-20) [mt-176] | 8.69 | –
Y[Aib]EGTFTSDYSIYLDEQAAKEFVNWLLAGGPSSGAPPPSC([maleimide-PEG 40 kDa])-NH2 (lactam 16-20) [mt-178] | 0.171 | 8.19
Y[Aib]QGTFTSDYSIYLDEQAAKEFVC(PEG 40 kDa″)WLMNG-NH2 (lactam 16-20) [mt-186] | 0.5 | 2.8
B2 | 0.011 | 209
B3 | 13.2 | 0.17
B4 | 0.012 | 192
Y[Aib]EGTFTSDYSIYLDEQAAKEFVNWLLAGKGKKNWLKHNITQC-NH2 (lactam 16-20) [mt-206] | 0.095 | –
Y[Aib]QGTFTSDYSIYLDEQAAKEFVNWLLAGKGKKNWLKHNITQC-NH2 (lactam 16-20) [mt-207] | 0.073 | 42.5
Y[Aib]EGTFTSDYSIYLDEQAAKEFVNWLLAGKGKKNWLKHNITQC(PEG 40 kDa″)-NH2 (lactam 16-20) [mt-208] | 0.262 | –
Y[Aib]QGTFTSEYSKYLDEQAAKEFVNWLLAGGPSSGAPPPSC-NH2 (lactam 9-12, 16-20; not fully specified) [mt-209] | 2.34 | 1.33

Target: T1, GIP receptor (UniProt P48546 22-466)
T1 sequence (looked up): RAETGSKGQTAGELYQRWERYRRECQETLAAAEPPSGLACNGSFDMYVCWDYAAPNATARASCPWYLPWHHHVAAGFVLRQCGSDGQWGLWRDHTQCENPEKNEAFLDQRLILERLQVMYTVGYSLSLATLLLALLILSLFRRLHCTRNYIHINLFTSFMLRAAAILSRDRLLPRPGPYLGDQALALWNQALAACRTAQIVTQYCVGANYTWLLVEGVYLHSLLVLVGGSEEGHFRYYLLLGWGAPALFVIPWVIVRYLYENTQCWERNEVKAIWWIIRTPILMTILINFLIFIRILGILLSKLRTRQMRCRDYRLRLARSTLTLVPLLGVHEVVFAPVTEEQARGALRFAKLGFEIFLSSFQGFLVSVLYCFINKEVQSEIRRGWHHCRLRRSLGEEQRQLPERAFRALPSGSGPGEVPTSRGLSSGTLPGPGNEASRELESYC
Test: cell-based or functional assay

Binder | EC50 [nM] | relative activity [%]
B1 | 0.023 | 95.7
Y[Aib]QGTFTSDYSIYLDEQAAKEFVC(PEG 40 kDa)WLLAGGPSSGAPPPS-NH2 (lactam 16-20) [mt-175] | 1.93 | 0.93
Y[Aib]QGTFISDYSIYLDEQAAKEFVNWLLAGGPSSGAPPPSC-NH2 (lactam 16-20) [mt-176] | 0.055 | –
Y[Aib]EGTFTSDYSIYLDEQAAKEFVNWLLAGGPSSGAPPPSC([maleimide-PEG 40 kDa])-NH2 (lactam 16-20) [mt-178] | 0.448 | 4.69
Y[Aib]QGTFTSDYSIYLDEQAAKEFVC(PEG 40 kDa″)WLMNG-NH2 (lactam 16-20) [mt-186] | 15.2 | 0.14
B2 | 0.189 | 16.9
B3 | 149 | 0.02
B4 | 0.072 | 44.4
Y[Aib]EGTFTSDYSIYLDEQAAKEFVNWLLAGKGKKNWLKHNITQC-NH2 (lactam 16-20) [mt-206] | 0.115 | –
Y[Aib]QGTFTSDYSIYLDEQAAKEFVNWLLAGKGKKNWLKHNITQC-NH2 (lactam 16-20) [mt-207] | 0.622 | 2.41
Y[Aib]EGTFTSDYSIYLDEQAAKEFVNWLLAGKGKKNWLKHNITQC(PEG 40 kDa″)-NH2 (lactam 16-20) [mt-208] | 0.313 | –
Y[Aib]QGTFTSEYSKYLDEQAAKEFVNWLLAGGPSSGAPPPSC-NH2 (lactam 9-12, 16-20; not fully specified) [mt-209] | 1.05 | 1.42

Target: GLP-1 receptor (UniProt P43220 24-463, limits assumed)
Test: cell-based or functional assay
Remark: another data set of the same source

Binder | EC50, nM; GLP-1 Receptor [nM]
B5 | 0.0106
B6 | 0.0076

Target: T2, GIP receptor (UniProt P48546 22-466)
T2 sequence (looked up): T1 sequence (looked up)
Test: cell-based or functional assay

Binder | EC50, nM; GIP Receptor [nM]
B5 | 0.0068
B6 | 0.0031
